Experimental data reported in patent publication US20080249606.

B1: factor XII (FXII, Calbiochem 233490) (protein)
chain: IPPWEAPKEHKYKAEEHTVVLTVTGEPCHFPFQYHRQLYHKCTHKGRPGPQPWCATTPNFDQDQRWGYCLEPKKVKDHCSKHSPCQKGGTCVNMPSGPHCLCPQHLTGNHCQKEKCFEPQLLRFFHKNEIWYRTEQAAVARCQCKGPDAHCQRLASQACRTNPCLHGGRCLEVEGHRLCHCPVGYTGAFCDVDTKASCYDGRGLSYRGLARTTLSGAPCQPWASEATYRNVTAEQARNWGLGGHAFCRNPDNDIRPWCFVLNRDRLSWEYCDLAQCQTPTQAAPPTPVSPRLHVPLMPAQPAPPKPQPTTRTPPQSQTPGALPAKREQPPSLTRNGPLSCGQRLRKSLSSMTRVVGGLVALRGAHPYIAALYWGHSFCAGSLIAPCWVLTAAHCLQDRPAPEDLTVVLGQERRNHSCEPCQTLAVRSYRLHEAFSPVSYQHDLALLRLQEDADGSCALLSPYVQPVCLPSGAARPSETTLCQVAGWGHQFEGAEEYASFLQEAQVPFLSLERCSAPDVHGSSILPGMLCAGFLEGGTDACQGDSGGPLVCEDQAAERRLTLQGIISWGSGCGDRNKPGVYTDVAYYLAWIREHTVS
B2: tissue-type plasminogen activator (tPA, Actilyse, Boehringer-Ingelheim) (protein)
chain: SYQVICRDEKTQMIYQQHQSWLRPVLRSNRVEYCWCNSGRAQCHSVPVKSCSEPRCFNGGTCQQALYFSDFVCQCPEGFAGKCCEIDTRATCYEDQGISYRGTWSTAESGAECTNWNSSALAQKPYSGRRPDAIRLGLGNHNYCRNPDRDSKPWCYVFKAGKYSSEFCSTPACSEGNSDCYFGNGSAYRGTHSLTESGASCLPWNSMILIGKVYTAQNPSAQALGLGKHNYCRNPDGDAKPWCHVLKNRRLTWEYCDVPSCSTCGLRQYSQPQFRIKGGLFADIASHPWQAAIFAKHRRSPGERFLCGGILISSCWILSAAHCFQERFPPHHLTVILGRTYRVVPGEEEQKFEVEKYIVHKEFDDDTYDNDIALLQLKSDSSRCAQESSVVRTVCLPPADLQLPDWTECELSGYGKHEALSPFYSERLKEAHVRLYPSSRCTSQHLLNRTVTDNMLCAGDTRSGGPQANLHDACQGDSGGPLVCLNDGRMTLVGIISWGLGCGQKDVPGVYTKVTNYLDWIRDNMRP

How the values were obtained:
[1] = target: BSA exposed to Ellagic acid, P02769
[2] = target: BSA exposed to kaolin, P02769
[3] = target: BSA incubated overnight with dextran sulphate 500,000 Da (DXS500k), P02769
[4] = target: Bovine serum albumin (BSA), P02769
[5] = target: Gelofusin (Braun Melsungen AG)
[6] = target: Gelofusin mixed with kaolin
[7] = target: Gelofusin mixed with lipopolysaccharide (LPS)
[8] = target: T1, endostatin exposed to Ellagic acid, P39060
T1 chain: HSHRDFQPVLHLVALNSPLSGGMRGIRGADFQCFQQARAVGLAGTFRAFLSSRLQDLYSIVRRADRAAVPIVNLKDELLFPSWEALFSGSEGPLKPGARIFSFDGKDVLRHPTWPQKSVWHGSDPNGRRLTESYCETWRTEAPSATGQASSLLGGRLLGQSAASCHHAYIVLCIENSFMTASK

[9] = target: endostatin exposed to kaolin, P39060
[10] = target: endostatin incubated overnight with DXS500k, P39060
[11] = target: endostatin, a recombinantly produced fragment of human collagen XVIII (EntreMed), P39060
[12] = target: glycated haemoglobin (Hb-AGE), P69905
[13] = target: lysozyme exposed to Microlance-3 injection needles, P00698
Chain of lysozyme exposed to Microlance-3 injection needles, P00698 (P00698 19-147): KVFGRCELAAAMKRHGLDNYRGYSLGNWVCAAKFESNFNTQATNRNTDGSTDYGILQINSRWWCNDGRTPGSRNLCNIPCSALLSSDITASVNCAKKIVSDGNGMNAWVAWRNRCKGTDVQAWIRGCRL

Chain of glycated haemoglobin (Hb-AGE), P69905 (P69905 2-142, chain 1 of 2): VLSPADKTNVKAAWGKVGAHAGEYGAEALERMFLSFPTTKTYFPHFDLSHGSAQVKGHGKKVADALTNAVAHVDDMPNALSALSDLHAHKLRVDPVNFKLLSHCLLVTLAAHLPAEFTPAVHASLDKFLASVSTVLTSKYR
Chain of glycated haemoglobin (Hb-AGE), P69905 (chain, as listed by the source, chain 2 of 2): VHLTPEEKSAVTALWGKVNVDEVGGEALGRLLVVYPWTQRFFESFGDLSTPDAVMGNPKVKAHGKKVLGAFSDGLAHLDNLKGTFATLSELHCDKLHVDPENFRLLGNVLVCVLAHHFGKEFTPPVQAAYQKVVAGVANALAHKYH
Chain of Bovine serum albumin (BSA), P02769 (P02769 25-607): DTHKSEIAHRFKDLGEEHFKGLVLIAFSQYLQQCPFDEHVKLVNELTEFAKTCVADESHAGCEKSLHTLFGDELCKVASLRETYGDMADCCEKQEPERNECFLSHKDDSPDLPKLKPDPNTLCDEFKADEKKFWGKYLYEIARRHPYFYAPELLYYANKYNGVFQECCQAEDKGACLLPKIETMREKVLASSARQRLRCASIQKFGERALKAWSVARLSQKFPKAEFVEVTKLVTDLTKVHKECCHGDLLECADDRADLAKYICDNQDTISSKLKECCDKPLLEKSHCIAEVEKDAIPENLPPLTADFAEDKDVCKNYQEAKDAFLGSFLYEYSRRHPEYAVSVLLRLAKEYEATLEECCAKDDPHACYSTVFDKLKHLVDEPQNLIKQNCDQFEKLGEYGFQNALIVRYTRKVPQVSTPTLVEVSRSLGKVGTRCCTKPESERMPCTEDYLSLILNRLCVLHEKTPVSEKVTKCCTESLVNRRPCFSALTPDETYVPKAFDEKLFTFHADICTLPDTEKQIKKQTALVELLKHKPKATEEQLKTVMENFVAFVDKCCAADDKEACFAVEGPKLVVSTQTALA
Chain of BSA exposed to kaolin, P02769 (P02769 25-607): as above
Chain of BSA exposed to Ellagic acid, P02769 (P02769 25-607): as above
Chain of BSA incubated overnight with dextran sulphate 500,000 Da (DXS500k), P02769 (P02769 25-607): as above

Protein	chromogenic factor XII/prekallikrein activation assay [1]	FXII activation (conversion of Chromozym-PK by kallikrein) [2]	FXII activation (conversion of Chromozym-PK by kallikrein) [3]	FXII activation (conversion of Chromozym-PK by kallikrein) [4]	chromogenic factor XII/prekallikrein activation assay with active enzyme kallikrein read-out [5]	chromogenic factor XII/prekallikrein activation assay with active enzyme kallikrein read-out [6]	chromogenic factor XII/prekallikrein activation assay with active enzyme kallikrein read-out [7]	chromogenic factor XII/prekallikrein activation assay [8]	FXII activation (conversion of Chromozym-PK by kallikrein) [9]	FXII activation (conversion of Chromozym-PK by kallikrein) [10]	FXII activation (conversion of Chromozym-PK by kallikrein) [11]	FXII activation [12]	Plg-activation assay (plasmin substrate S-2251) [13]
B1	exposure of the proteins to the polyphenol surface induces increased capacity to activate factor XII/prekallikrein	combinations of surface and protein cofactor results in FXII and subsequent prekallikrein activity	combinations of surface and protein cofactor results in FXII and subsequent prekallikrein activity	Neither BSA or endostatin alone, nor kaolin or DXS500k alone are efficient activators of FXII	Gelofusin alone does not stimulate factor XII/prekalikrein activation	enhanced activity is seen when Gelofusin is mixed with kaolin or LPS	enhanced activity is seen when Gelofusin is mixed with kaolin or LPS	exposure of the proteins to the polyphenol surface induces increased capacity to activate factor XII/prekallikrein	combinations of surface and protein cofactor results in FXII and subsequent prekallikrein activity	combinations of surface and protein cofactor results in FXII and subsequent prekallikrein activity	Neither BSA or endostatin alone, nor kaolin or DXS500k alone are efficient activators of FXII	Presence of cross-β structure conformation in Hb-AGE was conformed by tPA binding, tPA activation, FXII activation	
B2													When the plasma protein lysozyme is exposed to the stainless steel of a Microlance-3 injection needle, tPA activating properties are induced
